Data on one substance can be found in US20220089758A1.

The target in the assay is CD40 protein displayed on cell surface (UniProt P25942). The assay is described as follows: cell-based or functional assay.
Sequence of CD40 protein displayed on cell surface (P25942 21-277 limits assumed): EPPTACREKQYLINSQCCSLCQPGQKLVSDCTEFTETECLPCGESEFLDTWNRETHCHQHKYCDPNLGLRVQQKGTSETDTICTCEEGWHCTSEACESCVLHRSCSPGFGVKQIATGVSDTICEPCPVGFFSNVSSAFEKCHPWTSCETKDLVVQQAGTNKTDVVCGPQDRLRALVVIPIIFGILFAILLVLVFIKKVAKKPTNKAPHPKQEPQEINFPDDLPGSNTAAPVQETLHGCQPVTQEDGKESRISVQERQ

CP-870893 (antibody) gave an EC50 in activating MoDC assessed by CD86 expression of 4.2 nM and an EC50 in activating monocyte derived dendritic cell (MoDC) assessed by CD80 expression of 5 nM.
